{"source": "patent US20230055235", "about": "“ANTI-CANCER IMMUNOTHERAPEUTIC COMPOSITION FOR TREATING CANCER” (INTEROLIGO CORPORATION., published 2023)", "binders": {"B1": {"name": "PL021 (ssDNA)", "DNA": "AAGTTTTTGATTGTACCTTAGTG", "modifications": "Bz-dU at every n"}}, "biological_target": "PD-L1 (programmed death-ligand 1) (UniProt Q9NZQ7 Q9NZQ7:19-238)", "sequence (Q9NZQ7 19-238, one chain of several)": "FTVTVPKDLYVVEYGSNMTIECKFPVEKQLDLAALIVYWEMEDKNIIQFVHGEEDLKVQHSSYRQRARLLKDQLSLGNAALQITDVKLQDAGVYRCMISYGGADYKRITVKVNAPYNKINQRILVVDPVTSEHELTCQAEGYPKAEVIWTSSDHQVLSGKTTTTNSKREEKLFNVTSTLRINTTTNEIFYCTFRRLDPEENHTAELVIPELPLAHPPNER", "test": "inhibition; PD-1/PD-L1 binding ELISA", "description": "PD-1/PD-L1 binding inhibition of the synthetic fragment aptamer was determined by conducting a purified protein-based test. Purified protein-based PD-1/PD-L1 binding inhibition test (BPS, USA) was conducted by ELISA method based on horseradish peroxidase (HRP). First, purified PD-L1 protein according to the product manual was fixed on a 96 well plate, and then each well was washed with Immuno Buffer 1 for a total of 3 times in order to remove unbound PD-L1 protein. Aptamers were prepared in a selection buffer for each experimental concentration and slowly cooled from 95° C. to 37° C. by 0.1° C. per second. 5 μL of the aptamer was added to the well to which PD-L1 protein was fixed, followed by adding 20 μL of Biotin-bound PD-1 protein prepared according to the corresponding instructions to each well again. […] After adding 100 μL of the HRP substrate mixture to the well, from which the supernatant was removed, a fluorescent intensity was measured using a luminometer so as to determine the inhibition of PD-1/PD-L1 binding. IC₅₀ (50% inhibitory concentration) was calculated using the online tool.\nAptamer PD-1/PD-L1 binding inhibitory activity described in Table 6 of Example 1.3.1 was measured in the same manner as in Example 1.2.2."}
{"binder": "B1", "values": [{"measurement": "IC50", "result": 27.7, "unit": "nM"}]}
